According to patent US20050182242A1, “Global analysis of protein activities using proteome chips” (priority 2001, published 2005):

B1: SPS2: yeast sporulation protein of prospore membrane, GST-HisX6 fusion (protein, UniProt P08459 57-475, looked up)
Sporulation-specific protein 2: AVEPNGGPNILDHNIMLVNTNATIPKKEQTDFEVISPTKQTQVDEDCKKGLYHIENAGNLIELQAKCWKVVGNIEISSNYSGSLIDLGLIREIEGDLIIKNNKHIFRIQGYNLESLGKLELDSLTSFVSLDFPALKEVETVDWRVLPILSSVVINGNIKKIKNIIISDTALTSIDYFNNVKKVDIFNINNNRFLENLFASLESVTKQLTVHSNAKELELDLSNLHTVENMTIKDVSEIKLAKLSSVNSSLEFIENQFSSLELPLLAKVQGTLGLIDNKNLKKLNFSNATDIQGGLMIANNTELAKIDFFPKLRQIGGAIYFEGSFDKIDLPELKLVKGSAYIKSSSEELNCEEFTSPKAGRSIIRGGKIECTSGMKSKMLNVDEEGNVLGKQETDNDNGKKEKGKNGAKSQGSSKKMEN
modifications: GST-His6 tag
notes: yeast sporulation protein of prospore membrane, GST-HisX6 fusion
B2: SNF1: yeast protein kinase, regulator of glucose metabolism, GST-HisX6 fusion (protein, UniProt P06782 1-633, looked up)
Carbon …: MSSNNNTNTAPANANSSHHHHHHHHHHHHHGHGGSNSTLNNPKSSLADGAHIGNYQIVKTLGEGSFGKVKLAYHTTTGQKVALKIINKKVLAKSDMQGRIEREISYLRLLRHPHIIKLYDVIKSKDEIIMVIEYAGNELFDYIVQRDKMSEQEARRFFQQIISAVEYCHRHKIVHRDLKPENLLLDEHLNVKIADFGLSNIMTDGNFLKTSCGSPNYAAPEVISGKLYAGPEVDVWSCGVILYVMLCRRLPFDDESIPVLFKNISNGVYTLPKFLSPGAAGLIKRMLIVNPLNRISIHEIMQDDWFKVDLPEYLLPPDLKPHPEEENENNDSKKDGSSPDNDEIDDNLVNILSSTMGYEKDEIYESLESSEDTPAFNEIRDAYMLIKENKSLIKDMKANKSVSDELDTFLSQSPPTFQQQSKSHQKSQVDHETAKQHARRMASAITQQRTYHQSPFMDQYKEEDSTVSILPTSLPQIHRANMLAQGSPAASKISPLVTKKSKTRWHFGIRSRSYPLDVMGEIYIALKNLGAEWAKPSEEDLWTIKLRWKYDIGNKTNTNEKIPDLMKMVIQLFQIETNNYLVDFKFDGWESSYGDDTTVSNISEDEMSTFSAYPFLHLTTKLIMELAVNSQSN
B3: PYK1: yeast pyruvate kinase, GST-HisX6 fusion (protein, UniProt P00549 2-500, looked up)
Pyruvate kinase 1: SRLERLTSLNVVAGSDLRRTSIIGTIGPKTNNPETLVALRKAGLNIVRMNFSHGSYEYHKSVIDNARKSEELYPGRPLAIALDTKGPEIRTGTTTNDVDYPIPPNHEMIFTTDDKYAKACDDKIMYVDYKNITKVISAGRIIYVDDGVLSFQVLEVVDDKTLKVKALNAGKICSHKGVNLPGTDVDLPALSEKDKEDLRFGVKNGVHMVFASFIRTANDVLTIREVLGEQGKDVKIIVKIENQQGVNNFDEILKVTDGVMVARGDLGIEIPAPEVLAVQKKLIAKSNLAGKPVICATQMLESMTYNPRPTRAEVSDVGNAILDGADCVMLSGETAKGNYPINAVTTMAETAVIAEQAIAYLPNYDDMRNCTPKPTSTTETVAASAVAAVFEQKAKAIIVLSTSGTTPRLVSKYRPNCPIILVTRCPRAARFSHLYRGVFPFVFEKEPVSDWTDDVEARINFGIEKAKEFGILKKGDTYVSIQGFKAGAGHSNTLQVSTV
modifications: GST-HisX6 tag
notes: yeast pyruvate kinase, GST-HisX6 fusion
B4: STP22: yeast protein required for vacuolar targeting of plasma membrane proteins, GST-HisX6 fusion (protein, UniProt P25604 1-385, looked up)
Suppressor protein STP22 of …: MSANGKISVPEAVVNWLFKVIQPIYNDGRTTFHDSLALLDNFHSLRPRTRVFTHSDGTPQLLLSIYGTISTGEDGSSPHSIPVIMWVPSMYPVKPPFISINLENFDMNTISSSLPIQEYIDSNGWIALPILHCWDPAAMNLIMVVQELMSLLHEPPQDQAPSLPPKPNTQLQQEQNTPPLPPKPKSPHLKPPLPPPPPPQPASNALDLMDMDNTDISPTNHHEMLQNLQTVVNELYREDVDYVADKILTRQTVMQESIARFHEIIAIDKNHLRAVEQAIEQTMHSLNAQIDVLTANRAKVQQFSSTSHVDDEDVNSIAVAKTDGLNQLYNLVAQDYALTDTIECLSRMLHRGTIPLDTFVKQGRELARQQFLVRWHIQRITSPLS
modifications: GST-His6 fusion tag
B5: GPM3: yeast phosphoglycerate mutase, GST-HisX6 fusion (protein, UniProt Q12326 1-303, looked up)
Phosphoglycerate mutase 3: MTVTDTFKLFILRHGQSELNSENIFCGWIDAQLTEKGKSQARHSAKLIKQFCDSNNISLPQIGYTSRLIRTQQTMDVILEELGLKHTNYVITTNTNIKEELQDTRFEGSMPVLQTWRLNERHYGAWQGQRKPDILKEYGKEKYMYIRRDYNGKPPKVNLNLEMVQEENDQGSSTGYDFKEPNRHLKYGPEEKANERLPESESLCEVVVRLKPFLNNVVLSTANKISQESCVIVGHGSSVRSLLKVLEGISDEDIKDVDIPNGIPLVIELDRDNYSFVRKFYLDPESAKVNAQMVRDEGFEKNP
modifications: GST-His6 tag
notes: yeast phosphoglycerate mutase, GST-HisX6 fusion

Legend:
[1] = system: phosphatidylcholine (PC) liposomes; assay: Yeast proteome chip probed with PC liposomes; settings: liposome binding signal on yeast proteome chip, Cy3-streptavidin detection
Procedure, shortened: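 Signal comes from Cy3- or Cy5-streptavidin recognising 1% (w/w) biotin-DHPE carried in every liposome. Liposomes were PC alone or PC containing 5% (w/w) of a single phosphoinositide, applied to arrayed GST-fusion yeast proteins for 1 h at RT.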

PI(3,4,5)P3 liposomes = assay: Yeast proteome chip probed with PI(3,4,5)P3 liposomes; settings: liposome binding signal on yeast proteome chip, Cy3-streptavidin detection
PI(3,4)P2 liposomes = assay: Yeast proteome chip probed with PI(3,4)P2 liposomes; settings: liposome binding signal on yeast proteome chip, Cy3-streptavidin detection
PI(3)P liposomes = assay: Yeast proteome chip probed with PI(3)P liposomes; settings: liposome binding signal on yeast proteome chip, Cy3-streptavidin detection
PI(4,5)P2 liposomes = assay: Yeast proteome chip probed with PI(4,5)P2 liposomes; settings: liposome binding signal on yeast proteome chip, Cy3-streptavidin detection
PI(4)P liposomes = assay: Yeast proteome chip probed with PI(4)P liposomes; settings: liposome binding signal on yeast proteome chip, Cy3-streptavidin detection
[2] = system: phospholipids (phosphatidylinositols vs phosphatidylcholine); assay: Proteome chip lipid-binding screen, overall analysis of six liposomes (PI/PC specificity); settings: for preferential binding of particular phosphatidylinositol lipids: compared with phosphatidylcholine; for identified as lipid-binding interactor: phospholipid liposome probes
Description: FIGS. 4A-4D. Analysis of the phosphatidylinositol-binding proteins. To determine the phosphatidylinositol (“PI”)-binding specificity of 150 positive proteins, their binding signals were normalized against the corresponding binding signals of phosphatidylcholine (“PC”). Based on the ratios (“PI/PC”), the proteins were grouped into four categories: (A) 30 strong and specific, (B) 43 strong and nonspecific, (C) 19 weak and specific, and (D) 58 weak and nonspecific phosphatidylinositol-binding proteins. The intensity represents the PI/PC signal ratio as shown by the scale in the figure. The column, labeled “10^n” to the right of the PI/PC binding ratios indicates the maximum binding signal intensity (open boxes) and its confidence interval (solid horizontal lines); the numbers indicate the log of the values. Boxes in the three columns to the right of the confidence interval column indicate membrane-associated proteins (“Membrane”), kinases (“Kinase”), and uncharacterized ORFs (“Unknown”), respectively.
To identify PI-binding proteins in yeast, liposomes were used as probes because the liposome provides the most relevant physiological condition to assay the interactors. Six types of liposomes were used. Each contains phosphatidylcholine (“PC”) with 1% (w/w) N-(biotinoyl)-1,2-dihexadecanoyl-sn-glycero-3-phosphoethanolamine, triethylammonium salt (biotin DHPE). The biotinylated lipid serves as a label that can be detected by Cy3-streptavidin (21). In addition to PC, the five other liposomes contain either 5% (w/w) PI(3)P, PI(4)P, PI(3,4)P2, PI(4,5)P2, or PI(3,4,5)P3 (FIG. 3A).
The protein-liposome interaction was assayed as follows. Appropriate amounts of each lipid in chloroform were mixed and dried under nitrogen. The lipid mixture was resuspended in TBS buffer by vortexing. The liposomes were created by sonication. Blocked proteome chips were washed three to five times in PBS buffer, and the extra liquid on the glass surface was removed by tapping the slides vertically on a KIMWIPE™. 200 μl of liposome solution was added to the proteome chip and immediately covered by a hydrophobic plastic cover slip (GRACE BIO-LAB™, USA). After trapped air bubbles were removed, the chip was incubated in a humidity chamber at RT for one hour. To remove the cover slip, the chip was immersed into large volume of PBS buffer (50 ml), so that the slip would float away. The chip was then moved to a second PBS bath (>50 ml) and washed 3×5 min with shaking at RT. After removing extra liquid on the surface of the chip, about 100 μl of Cy3 or Cy5 conjugated streptavidin (PIERCE™, USA; 1:2000 to 1:4000 dilution) was added to the surface and covered by a hydrophobic plastic cover slip (GRACE BIO-LABS™, USA). The chip was incubated for greater than 30 min in the dark at RT. The chip was then washed as described above. To completely remove the liquid on the chip, the chip was spun to dryness at 1500-2000 rpm for 5-10 min at RT.
An algorithm was devised to assist in the identification of positive signals (42). Fifty-two (35%) of the interactors (i.e., lipid-binding proteins) correspond to uncharacterized proteins thus ascribing the first biochemical activities to those proteins.
The interactors (i.e., phospholipid-binding proteins) were grouped in several ways (42). First, the interactors were sorted according to whether they bound lipids strongly or weakly, based on the phospholipid-binding signal relative to the amount of GST (FIG. 4). Slightly more (72%) of the strong lipid binding proteins (FIGS. 4A and 4B) were characterized relative to the weakly binding proteins (54%) (FIGS. 4C and 4D). Many of the strong lipid-binding proteins are membrane-associated, or are predicted to be associated with membranes, whereas fewer of the weaker binding proteins appear to be associated with membranes (FIG. 4, “Membrane” column). […] Moreover, thirteen of the seventeen protein kinases bind very strongly to the phospholipids. […]

Molecule	PC [1]	PI(3, 4, 5)P3 (PI(3,4,5)P3 liposomes)	PI(3, 4)P2 (PI(3,4)P2 liposomes)	PI(3)P (PI(3)P liposomes)	PI(4, 5)P2 (PI(4,5)P2 liposomes)	PI(4)P (PI(4)P liposomes)	preferential binding of particular phosphatidylinositol lipids [2]	identified as lipid-binding interactor [2]
B1	44.61	25.31	54.63	18.50	64.02	47.47	preferentially interacts with PI(3)P	–
B2	1774.37	560.70	298.26	202.00	423.73	1795.06	–	identified
B3	6.46	−1.12	−5.02	−9.00	−13.06	10.45	–	identified
B4	2.93	22.05	8.79	51.50	−8.27	10.89	preferentially binds PI(4)P	–
B5	137.64	66.04	85.40	42.50	112.57	85.35	–	identified
